T1: Human PTK7/CCK4 Protein, His Tag, Acro Biosystems PT7-H52H3 (human, UniProt Q13308 31-704)
T1 construct: bought protein; also called Human PTK7 Protein, His Tag, Acro Biosystems; not shown: His tag
T1 sequence: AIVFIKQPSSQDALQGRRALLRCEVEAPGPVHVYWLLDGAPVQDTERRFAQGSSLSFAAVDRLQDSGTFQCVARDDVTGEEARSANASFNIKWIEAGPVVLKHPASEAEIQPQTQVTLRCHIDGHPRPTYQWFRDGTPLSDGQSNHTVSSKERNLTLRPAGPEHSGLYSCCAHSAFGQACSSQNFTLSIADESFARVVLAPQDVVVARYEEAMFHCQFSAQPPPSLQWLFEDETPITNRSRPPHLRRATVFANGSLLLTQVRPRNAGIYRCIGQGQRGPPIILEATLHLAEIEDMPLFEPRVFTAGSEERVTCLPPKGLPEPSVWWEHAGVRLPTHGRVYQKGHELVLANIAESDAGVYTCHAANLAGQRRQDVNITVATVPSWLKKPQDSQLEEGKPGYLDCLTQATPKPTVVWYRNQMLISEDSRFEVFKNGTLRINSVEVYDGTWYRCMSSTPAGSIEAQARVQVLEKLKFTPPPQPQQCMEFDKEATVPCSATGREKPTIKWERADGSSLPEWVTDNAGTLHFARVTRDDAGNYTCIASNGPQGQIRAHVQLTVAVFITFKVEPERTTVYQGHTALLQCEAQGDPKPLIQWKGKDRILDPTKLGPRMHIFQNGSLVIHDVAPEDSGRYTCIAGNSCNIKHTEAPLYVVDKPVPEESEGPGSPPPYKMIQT

T2: Human PTK7 Protein, His Tag, Acro Biosystems (human, UniProt Q13308 31-704)
T2 construct: Bought recombinant protein; also called CCK4; not shown: His tag
T2 sequence: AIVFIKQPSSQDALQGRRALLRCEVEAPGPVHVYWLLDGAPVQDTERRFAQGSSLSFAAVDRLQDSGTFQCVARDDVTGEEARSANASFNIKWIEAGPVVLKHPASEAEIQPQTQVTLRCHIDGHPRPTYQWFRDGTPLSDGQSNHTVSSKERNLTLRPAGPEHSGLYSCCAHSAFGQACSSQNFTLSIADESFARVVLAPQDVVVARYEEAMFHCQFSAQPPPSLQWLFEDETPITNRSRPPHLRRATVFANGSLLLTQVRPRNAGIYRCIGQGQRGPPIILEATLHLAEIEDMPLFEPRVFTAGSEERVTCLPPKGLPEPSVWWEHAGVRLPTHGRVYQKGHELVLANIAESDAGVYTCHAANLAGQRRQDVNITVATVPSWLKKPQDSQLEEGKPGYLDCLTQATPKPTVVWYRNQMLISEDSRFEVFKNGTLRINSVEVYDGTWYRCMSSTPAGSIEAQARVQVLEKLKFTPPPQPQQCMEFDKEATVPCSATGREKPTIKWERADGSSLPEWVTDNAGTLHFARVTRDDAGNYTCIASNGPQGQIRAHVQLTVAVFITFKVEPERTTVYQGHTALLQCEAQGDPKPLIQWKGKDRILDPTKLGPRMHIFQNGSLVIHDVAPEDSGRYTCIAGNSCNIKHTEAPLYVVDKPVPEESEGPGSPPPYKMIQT


Key:
[1] = biological target: T1, Human PTK7/CCK4 Protein, His Tag, Acro …; assay: BLI, antibody on anti-human Fc sensor
[2] = biological target: T2, Human PTK7 Protein, His Tag, Acro …; assay: BLI, anti-human Fc capture, 50 nM PTK7; 1 = pH dependent binding relative to parent

Row | binding result [1] | binding result [2] | Binder
1 | no binding (tested: 50 nM PTK7) | – | MYT6162 (antibody, V domains shown, IgG) VH: QVQLVQSGPEVKKPGASVKVSCKASGYTFTDYHVHWVRQAPGKRLEWIGVISTYNDYTYNNQDFKGRVTMTRDTSASTAYMELSRLRSEDTAVYYCARGNSYFYALDYWGQGTSVTVSS VL: EIVLTQSPATLSLSPGERATLSCRASESVDSYGKSFMHWYQQKPGQAPRLLIYRASNLESGIPARFSGSGSGTDFTLTISSLEPEDFAVYYCQQSNEDPWTFGGGTKLEIK
2 | no binding (tested: 50 nM PTK7) | – | MYT6184 (antibody, V domains shown, IgG) VH: QVQLVQSGPEVKKPGASVKVSCKASGYTFTDYAVHWVRQAPGKRLEWIGVISTYNDYTYNNQDFKGRVTMTRDTSASTAYMELSRLRSEDTAVYYCARHNSYFYALDYWGQGTSVTVSS VL: EIVLTQSPATLSLSPGERATLSCRASESVDSYGKSFMHWYQQKPGQAPRLLIYRASNLESGIPARFSGSGSGTDFTLTISSLEPEDFAVYYCQQSNEDPWTFGGGTKLEIK
3 | no binding (tested: 50 nM PTK7) | – | MYT6186 (antibody, V domains shown, IgG) VH: QVQLVQSGPEVKKPGASVKVSCKASGYTFTDYAVHWVRQAPGKRLEWIGVISTYNDYTYNNQDFKGRVTMTRDTSASTAYMELSRLRSEDTAVYYCARGNHYFYALDYWGQGTSVTVSS VL: EIVLTQSPATLSLSPGERATLSCRASESVDSYGKSFMHWYQQKPGQAPRLLIYRASNLESGIPARFSGSGSGTDFTLTISSLEPEDFAVYYCQQSNEDPWTFGGGTKLEIK
4 | no binding (tested: 50 nM PTK7) | – | MYT6165 (antibody, V domains shown, IgG) VH: QVQLVQSGPEVKKPGASVKVSCKASGYTFTDYAVHWVRQAPGKRLEWIGHISTYNDYTYNNQDFKGRVTMTRDTSASTAYMELSRLRSEDTAVYYCARGNSYFYALDYWGQGTSVTVSS VL: EIVLTQSPATLSLSPGERATLSCRASESVDSYGKSFMHWYQQKPGQAPRLLIYRASNLESGIPARFSGSGSGTDFTLTISSLEPEDFAVYYCQQSNEDPWTFGGGTKLEIK
5 | – | binds | MYT11144 (antibody, V domains shown, MYT9412 HC alanine variant) VH: EVQLVESGGGLVQPGGSLRLSCTASGFSLSTYAMSWVRQAPGKGLEWVGMIYINDNTYYASWAKGRFTISRDTSKNTVYLQMNSLRAEDTAVYFCARAIGISYYIGVSLWGQGTLVTVSS VL: EIVMTQSPSTLSASVGDRVIITCQASQSIGTRLSWYQQKPGKAPKLLIYGASKLATGVPSRFSGSGSGAEFTLTISSLQPDDFATYYCLGEYSYTTTDGIAFGQGTKLTVL
6 | – | binds | MYT11151 (antibody, V domains shown, MYT9412 LC variant) VH: EVQLVESGGGLVQPGGSLRLSCTASGFSLSTYAMSWVRQAPGKGLEWVGMIYINDNTYYASWAKGRFTISRDTSKNTVYLQMNSLRAEDTAVYFCARDIGISYYIGVSLWGQGTLVTVSS VL: EIVMTQSPSTLSASVGDRVIITCQASQSIHTRLSWYQQKPGKAPKLLIYGASKLATGVPSRFSGSGSGAEFTLTISSLQPDDFATYYCLGEYSYTTTDGIAFGQGTKLTVL
7 | – | binds | MYT11166 (antibody, V domains shown, MYT9412 LC variant) VH: EVQLVESGGGLVQPGGSLRLSCTASGFSLSTYAMSWVRQAPGKGLEWVGMIYINDNTYYASWAKGRFTISRDTSKNTVYLQMNSLRAEDTAVYFCARDIGISYYIGVSLWGQGTLVTVSS VL: EIVMTQSPSTLSASVGDRVIITCQASQSIGTRLSWYQQKPGKAPKLLIYGASKLATGVPSRFSGSGSGAEFTLTISSLQPDDFATYYCLGEHSYTTTDGIAFGQGTKLTVL
8 | – | binds | MYT11172 (antibody, V domains shown, MYT9412 LC variant) VH: EVQLVESGGGLVQPGGSLRLSCTASGFSLSTYAMSWVRQAPGKGLEWVGMIYINDNTYYASWAKGRFTISRDTSKNTVYLQMNSLRAEDTAVYFCARDIGISYYIGVSLWGQGTLVTVSS VL: EIVMTQSPSTLSASVGDRVIITCQASQSIGTRLSWYQQKPGKAPKLLIYGASKLATGVPSRFSGSGSGAEFTLTISSLQPDDFATYYCLGEYSYTTTHGIAFGQGTKLTVL
9 | – | binds | MYT11177 (antibody, V domains shown, MYT9412 LC alanine variant) VH: EVQLVESGGGLVQPGGSLRLSCTASGFSLSTYAMSWVRQAPGKGLEWVGMIYINDNTYYASWAKGRFTISRDTSKNTVYLQMNSLRAEDTAVYFCARDIGISYYIGVSLWGQGTLVTVSS VL: EIVMTQSPSTLSASVGDRVIITCQASQSIGTRLSWYQQKPGKAPKLLIYGASKLATGVPSRFSGSGSGAEFTLTISSLQPDDFATYYCLGEYSYTTTAGIAFGQGTKLTVL
10 | – | binds | MYT11163 (antibody, V domains shown, MYT9412 LC variant) VH: EVQLVESGGGLVQPGGSLRLSCTASGFSLSTYAMSWVRQAPGKGLEWVGMIYINDNTYYASWAKGRFTISRDTSKNTVYLQMNSLRAEDTAVYFCARDIGISYYIGVSLWGQGTLVTVSS VL: EIVMTQSPSTLSASVGDRVIITCQASQSIGTRLSWYQQKPGKAPKLLIYGASKLATGVPSRFSGSGSGAEFTLTISSLQPDDFATYYCHGEYSYTTTDGIAFGQGTKLTVL
11 | – | binds | MYT11150 (antibody, V domains shown, MYT9412 LC variant) VH: EVQLVESGGGLVQPGGSLRLSCTASGFSLSTYAMSWVRQAPGKGLEWVGMIYINDNTYYASWAKGRFTISRDTSKNTVYLQMNSLRAEDTAVYFCARDIGISYYIGVSLWGQGTLVTVSS VL: EIVMTQSPSTLSASVGDRVIITCQASQSHGTRLSWYQQKPGKAPKLLIYGASKLATGVPSRFSGSGSGAEFTLTISSLQPDDFATYYCLGEYSYTTTDGIAFGQGTKLTVL
12 | – | binds | MYT11178 (antibody, V domains shown, MYT9412 LC alanine variant) VH: EVQLVESGGGLVQPGGSLRLSCTASGFSLSTYAMSWVRQAPGKGLEWVGMIYINDNTYYASWAKGRFTISRDTSKNTVYLQMNSLRAEDTAVYFCARDIGISYYIGVSLWGQGTLVTVSS VL: EIVMTQSPSTLSASVGDRVIITCQASQSIGTRLSWYQQKPGKAPKLLIYGASKLATGVPSRFSGSGSGAEFTLTISSLQPDDFATYYCLGEYSYTTTDAIAFGQGTKLTVL
13 | – | binds | MYT11152 (antibody, V domains shown, MYT9412 LC variant) VH: EVQLVESGGGLVQPGGSLRLSCTASGFSLSTYAMSWVRQAPGKGLEWVGMIYINDNTYYASWAKGRFTISRDTSKNTVYLQMNSLRAEDTAVYFCARDIGISYYIGVSLWGQGTLVTVSS VL: EIVMTQSPSTLSASVGDRVIITCQASQSIGHRLSWYQQKPGKAPKLLIYGASKLATGVPSRFSGSGSGAEFTLTISSLQPDDFATYYCLGEYSYTTTDGIAFGQGTKLTVL
14 | – | binds | MYT11146 (antibody, V domains shown, MYT9412 LC variant) VH: EVQLVESGGGLVQPGGSLRLSCTASGFSLSTYAMSWVRQAPGKGLEWVGMIYINDNTYYASWAKGRFTISRDTSKNTVYLQMNSLRAEDTAVYFCARDIGISYYIGVSLWGQGTLVTVSS VL: EIVMTQSPSTLSASVGDRVIITCQHSQSIGTRLSWYQQKPGKAPKLLIYGASKLATGVPSRFSGSGSGAEFTLTISSLQPDDFATYYCLGEYSYTTTDGIAFGQGTKLTVL
15 | – | binds | MYT11153 (antibody, V domains shown, MYT9412 LC variant) VH: EVQLVESGGGLVQPGGSLRLSCTASGFSLSTYAMSWVRQAPGKGLEWVGMIYINDNTYYASWAKGRFTISRDTSKNTVYLQMNSLRAEDTAVYFCARDIGISYYIGVSLWGQGTLVTVSS VL: EIVMTQSPSTLSASVGDRVIITCQASQSIGTHLSWYQQKPGKAPKLLIYGASKLATGVPSRFSGSGSGAEFTLTISSLQPDDFATYYCLGEYSYTTTDGIAFGQGTKLTVL

Reference: patent publication US20260209386A1 (MYTHIC THERAPEUTICS, published 2026)
